Source: FireProtDB (doi:10.1021/bi034721x)
Values joined by “and” are separate entries in the source; they are usually repeats but may differ in a detail not shown here. Identical values can stand only once.

B1: Parvalbumin alpha, P02625 (parent)
chain: MSMTDLLSAEDIKKAIGAFTAADSFDHKKFFQMVGLKKKSADDVKKVFHILDKDKSGFIEEDELGSILKGFSSDARDLSAKETKTLMAAGDKDGDGKIGVEEFSTLVAES

Variants of: B1
Settings: Rattus norvegicus, pH 7.4, Thermal, DSC, sodium phosphate 10 mM, NaCl 0.20 M, structure 1RTP, whole UniProt chain shown

Row | Variant | ddG of mutation (higher = less stable) (45.8 °C) [kcal/mol] | heat capacity change of unfolding (45.8 °C) [kcal/mol/K] | Tm [°C] | change of melting temperature, mutant - wild type (higher = more stable) [°C] | unfolding enthalpy (calorimetric) | ddG of mutation (higher = less stable) (44.2 °C) [kcal/mol] | heat capacity change of unfolding (44.2 °C) [kcal/mol/K]
1 | MSMTDLLSAEDIKKAIGAFTAPDSFDHKKFFQMVGLKKKSADDVKKVFHILDKDKSGFIEEDELGSILKGFSSDARDLSASETKTLMAAGDKDGDGKIGVEEFSTLVAES [A22P K81S] | -0.45 | 1.4 | 47.8 | 2 | 75 kcal/mol | – | –
2 | MSMTDLLSAEDIKKAIGAFTAPDSFDHKKFFQMVGLKKKSADDVKKVFHILDKDKSGFIEEDELGSILKGFSSDARDLSAKETKTLMAAGDKDGDGKIGVEEFSTLVAES [A22P] | 1.92 | 1.4 | – | – | 52 kcal/mol and 63 kcal/mol | -0.95 | 1.4
3 | MSMTDLLSAEDIKKAIGAFTAPDSFDPKKFFQMVGLKKKSADDVKKVFHILDKDKSGFIEEDELGSILKGFSSDARDLSAKETKTLMAAGDKDGDGKIGVEEFSTLVAES [A22P H27P] | 0.5 | 1.4 | 43.6 | -2.2 | 62 kcal/mol | – | –
4 | MSMTDLLSAEDIKKAIGAFTAADSFDPKKFFQMVGLKKKSADDVKKVFHILDKDKSGFIEEDELGSILKGFSSDARDLSAKETKTLMAAGDKDGDGKIGVEEFSTLVAES [H27P] | -1.25 | 1.4 | 51.4 | 5.6 | 80 kcal/mol | – | –
5 | MSMTDLLSAEDIKKAIGAFTAADSFDHKKFFQMVGLKKKSADDVKKVFHILDKDKSGFIEEDELGSILKGFSSDARDLSASETKTLMAAGDKDGDGKIGVEEFSTLVAES [K81S] | 0.29 | 1.4 | 44.5 | -1.3 | 71 kcal/mol | – | –
